Earlier results in publication PMC5681435, “Differential Regulation of G1 CDK Complexes by the Hsp90-Cdc37 Chaperone System” (Cell Reports, 2017).

Target: B-Raf V600E kinase domain (Homo sapiens) (UniProt P15056)
Experiment: ITC
Settings: cited from earlier work

Sequence of Cdc37 (Q16543 2-378): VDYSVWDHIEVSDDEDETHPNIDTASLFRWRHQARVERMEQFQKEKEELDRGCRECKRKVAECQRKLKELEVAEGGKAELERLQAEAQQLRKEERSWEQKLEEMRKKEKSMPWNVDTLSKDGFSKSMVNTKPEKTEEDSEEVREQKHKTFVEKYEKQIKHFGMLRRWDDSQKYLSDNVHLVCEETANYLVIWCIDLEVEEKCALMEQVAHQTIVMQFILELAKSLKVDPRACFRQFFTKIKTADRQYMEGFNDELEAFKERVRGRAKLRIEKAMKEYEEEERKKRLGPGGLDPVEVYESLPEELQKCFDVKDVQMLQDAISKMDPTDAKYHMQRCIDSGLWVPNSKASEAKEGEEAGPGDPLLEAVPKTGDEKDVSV
Sequence of B-Raf V600E kinase domain (Homo sapiens) (P15056 457-717 V600E): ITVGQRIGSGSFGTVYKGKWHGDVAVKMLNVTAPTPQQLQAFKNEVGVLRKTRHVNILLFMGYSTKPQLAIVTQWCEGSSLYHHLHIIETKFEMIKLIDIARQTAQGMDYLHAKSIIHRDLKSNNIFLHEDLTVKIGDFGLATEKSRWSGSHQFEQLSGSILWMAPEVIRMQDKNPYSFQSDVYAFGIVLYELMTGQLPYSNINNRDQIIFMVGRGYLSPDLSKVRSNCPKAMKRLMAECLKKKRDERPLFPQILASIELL

## Cdc37 (from UniProt Q16543)
  Kd: 200 nM
